Where two headings read alike, the source gives them in different places. [ ]: non-standard residue; d: D form. Tyr(SO2F) = N[C@@H](Cc1ccc(OS(=O)(=O)F)cc1)C(=O)O
Columns and labels:
PSMA on PC3pip cells [1] = biological target: T1, PSMA on PC3pip cells (UniProt Q04609 1-750, limits assumed); experiment: cell-based or functional assay
PSMA on PC3pip cells [2] = biological target: T1, PSMA on PC3pip cells; experiment: cell-based or functional assay; remark: listed apart in the source
[3] = biological target: T2, PSMA (commercial, Sino Bio cat #15877-H07H) (UniProt Q04609 44-750); experiment: SDS-PAGE time course, 37C
T2 construct: also called receptor
T2 sequence (Q04609 44-750 limits assumed): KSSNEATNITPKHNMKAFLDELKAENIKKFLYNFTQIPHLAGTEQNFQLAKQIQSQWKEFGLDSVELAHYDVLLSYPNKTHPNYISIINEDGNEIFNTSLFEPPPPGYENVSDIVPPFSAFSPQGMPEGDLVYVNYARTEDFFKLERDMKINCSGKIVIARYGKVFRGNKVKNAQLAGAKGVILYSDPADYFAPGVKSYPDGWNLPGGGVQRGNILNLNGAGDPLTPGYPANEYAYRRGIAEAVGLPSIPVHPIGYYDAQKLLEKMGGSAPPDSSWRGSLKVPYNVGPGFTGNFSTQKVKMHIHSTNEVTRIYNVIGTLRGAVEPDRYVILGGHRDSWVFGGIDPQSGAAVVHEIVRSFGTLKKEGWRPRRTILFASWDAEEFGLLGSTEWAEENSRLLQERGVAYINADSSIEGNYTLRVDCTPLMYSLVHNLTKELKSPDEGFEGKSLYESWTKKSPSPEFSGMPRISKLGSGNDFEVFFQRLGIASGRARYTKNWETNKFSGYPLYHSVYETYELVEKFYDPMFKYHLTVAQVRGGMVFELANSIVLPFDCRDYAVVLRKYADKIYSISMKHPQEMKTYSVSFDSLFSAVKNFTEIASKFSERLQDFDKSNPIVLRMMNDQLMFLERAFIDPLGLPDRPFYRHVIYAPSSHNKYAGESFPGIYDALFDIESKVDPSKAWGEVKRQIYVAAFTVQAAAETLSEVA

PSMA on LNCaP cells [4] = biological target: T3, PSMA on LNCaP cells (human, UniProt Q04609 1-750); experiment: flow cytometry on LNCaP cells
T3 construct: whole, on cells; also called LNCaP (PSMA+)
T3 sequence (Q04609 whole entry): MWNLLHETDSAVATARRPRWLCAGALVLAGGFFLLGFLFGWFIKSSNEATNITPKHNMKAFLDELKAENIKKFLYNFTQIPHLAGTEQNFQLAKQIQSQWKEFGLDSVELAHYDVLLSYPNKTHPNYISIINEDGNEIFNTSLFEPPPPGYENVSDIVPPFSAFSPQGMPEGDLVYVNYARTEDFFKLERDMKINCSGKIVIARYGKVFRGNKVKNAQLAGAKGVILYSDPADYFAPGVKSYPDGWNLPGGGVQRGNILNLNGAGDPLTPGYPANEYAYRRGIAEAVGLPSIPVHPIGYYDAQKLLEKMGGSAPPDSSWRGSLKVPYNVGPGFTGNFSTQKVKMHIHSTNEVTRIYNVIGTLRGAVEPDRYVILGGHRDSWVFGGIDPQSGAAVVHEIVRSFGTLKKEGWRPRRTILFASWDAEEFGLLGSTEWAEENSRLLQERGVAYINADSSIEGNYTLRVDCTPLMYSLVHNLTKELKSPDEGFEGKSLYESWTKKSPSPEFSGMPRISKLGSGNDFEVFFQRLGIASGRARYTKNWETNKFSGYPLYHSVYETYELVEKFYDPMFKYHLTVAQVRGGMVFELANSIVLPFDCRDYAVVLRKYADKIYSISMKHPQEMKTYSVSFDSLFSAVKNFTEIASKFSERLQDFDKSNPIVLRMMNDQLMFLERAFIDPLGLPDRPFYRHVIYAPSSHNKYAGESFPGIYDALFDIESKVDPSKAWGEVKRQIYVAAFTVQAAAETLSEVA

[5] = biological target: T4, PSMA with a Fc tag (Acrobiosystem PSA-H5264) (UniProt Q04609 44-750); experiment: biolayer interferometry, PSMA-Fc on AHC sensor
T4 construct: Printed 'Fe tag'; captured on AHC sensors; also called PSMA with a Fe tag
T4 sequence (Q04609 44-750 limits assumed): as the sequence (Q04609 44-750 limits assumed) above

PSMA on LNCaP cells [6] = biological target: T3, PSMA on LNCaP cells; experiment: flow cytometry on LNCaP cells; remark: listed apart in the source
[7] = biological target: T5, Fc-tagged Her2 (Acrobiosystem #HER2-H5253) (UniProt P04626 23-652); experiment: SDS-PAGE time course
T5 construct: also called Her2-Fc; FcHer2

PSMA on LNCaP cells [8] = biological target: T3, PSMA on LNCaP cells; experiment: western blot, LNCaP cells, 1.0 nM, 6 h
PSMA on LNCaP cells [9] = biological target: T3, PSMA on LNCaP cells; experiment: western blot, LNCaP cells, 0.1 nM, 1 h
PSMA on LNCaP cells [10] = biological target: T3, PSMA on LNCaP cells; experiment: western blot, LNCaP cells, 100.0 nM, 1 h
PSMA on LNCaP cells [11] = biological target: T3, PSMA on LNCaP cells; experiment: western blot, LNCaP cells, 10.0 nM, 1 h
PSMA on LNCaP cells [12] = biological target: T3, PSMA on LNCaP cells; experiment: western blot, LNCaP cells, 1000.0 nM, 6 h
PSMA on LNCaP cells [13] = biological target: T3, PSMA on LNCaP cells; experiment: western blot, LNCaP cells, 100.0 nM, 6 h
PSMA on LNCaP cells [14] = biological target: T3, PSMA on LNCaP cells; experiment: western blot, LNCaP cells, 1000.0 nM, 1 h
PSMA on LNCaP cells [15] = biological target: T3, PSMA on LNCaP cells; experiment: western blot, LNCaP cells, 1.0 nM, 1 h
PSMA on LNCaP cells [16] = biological target: T3, PSMA on LNCaP cells; experiment: western blot, LNCaP cells, 10.0 nM, 6 h
PSMA on LNCaP cells [17] = biological target: T3, PSMA on LNCaP cells; experiment: western blot, LNCaP cells, 0.1 nM, 6 h
HER2 on BT-474 cells [18] = biological target: T6, HER2 on BT-474 cells (human, UniProt P04626 23-1255); experiment: flow cytometry on BT-474 cells, pH 6.0
T6 construct: whole, on cells

HER2 on BT-474 cells [19] = biological target: T6, HER2 on BT-474 cells; experiment: cell-based or functional assay

T1 sequence (Q04609 whole entry): as the sequence (Q04609 whole entry) above

B1: C28-101FSY (VHH)
VHH: QVQLQESGGGSVEAGGSLRLSCARSGWPYSTYSMNWFRQAPGKEREAVAGISSTMSGIIFAESKAGQFTISQDNAKNTVYLQMNNLKPEDTAIYYCAARRXFSLSSSSDDFDYWGQGTQVTVSS
modifications: FSY at 101 (X of the entry); MC-PEG8-VC-PABC-MMAE on the C-terminal Cys
IC50 PC3pip (M), cell viability by CellTiter-Glo after 4 days (PSMA on PC3pip cells [1]): 1.8e-10 M | fold potency against C28-101TYR (PSMA on PC3pip cells [2]): > 400 fold

B2: C39-102FSY (VHH)
VHH: QVQLQESGGGSVQAGGSLRLSCTAPGYTDSNYYMSWFRQAPGKEREWVAGVNTGRGSTSYADSVKGRFTISQDNAKNTMFLQMNSLKPEDTAIYYCAVAAAXFADSLPKTQDEYILWGQGTQVTVSS
modifications: FSY at 102 (X of the entry)
notes: pelB leader cleaved off; also called C1-C101A/C104A/H102(FSY); C39-FSY C1
t1/2 maximum crosslinking [3]: ~60 min

B3: C40-102FSY (bispecific antibody)
chain: QVQLQESGGGSVQAGGSLRLSCTAPGYTDSNYYMSWFRQAPGKEREWVAGVNTGRGSTSYADSVKGRFTISQDNAKNTMFLQMNSLKPEDTAIYYCAVAAAXFADSLPKTQDEYILWGQGTQVTVSSAAAYPYDVPDYGSGGGGSGGGGSQVQLQESGGGSVQAGGSLRLSCTAPGYTDSNYYMSWFRQAPGKEREWVAGVNTGRGSTSYADSVKGRFTISQDNAKNTMFLQMNSLKPEDTAIYYCAVAAAHFADSLPKTQDEYILWGQGTQVTVSSAAAYPYDVPDYGSHHHHHH
modifications: FSY at 102 of the first sdAb
notes: also called C40-FSY; C1-C101A/C104A/H102(FSY)-L1-C1-C39
fold crosslinking rate against C39-102FSY [3]: 2 fold | t1/2 maximum crosslinking [3]: ~30 min

B4: C26-54FSY (VHH)
VHH: EVQLVESGGGLVQPGGSLTLSCAASRFMISEYSMHWVRQAPGKGLEWVSTINPXGTTDYAESVKGRFTISRDNAKNTLYLQMNSLKPEDTAVYYCDGYGYRGQGTQVTVSS
modifications: FSY at 54 (X of the entry); MC-PEG8-VC-PABC-MMAE on the C-terminal Cys
IC50 PC3pip (M), cell viability by CellTiter-Glo after 4 days (PSMA on PC3pip cells [1]): 9.39e-10 M | fold potency against C26-54TYR (PSMA on PC3pip cells [2]): 3.57 fold

B5: C2-54TYR (VHH)
VHH: EVQLVESGGGLVQPGGSLTLSCAASRFMISEYSMHWVRQAPGKGLEWVSTINPYGTTDYAESVKGRFTISRDNAKNTLYLQMNSLKPEDTAVYYCDGYGYRGQGTQVTVSS
notes: C2 sdAb with tyrosine at position 54; also called C2-TYR
EC50 (PSMA on LNCaP cells [4]): 6.75 nM | Kd [5]: 9.1 nM

B6: C2-54FSY (VHH)
VHH: EVQLVESGGGLVQPGGSLTLSCAASRFMISEYSMHWVRQAPGKGLEWVSTINPXGTTDYAESVKGRFTISRDNAKNTLYLQMNSLKPEDTAVYYCDGYGYRGQGTQVTVSS
modifications: FSY at 54
notes: also called C2-A54(FSY); C2-FSY
EC50 (PSMA on LNCaP cells [6]): 12.2 nM | Kd [5]: 10.9 nM

B7: C38-FSY (designed binder)
chain: MDLGKKLLEAARAGQDDEVRILMANGADVNAHDFYGITPLHLAANFGHLEIVEVLLKHGADVNAF[Tyr(SO2F)]YDNTPLHLAADAGHLEIVEVLLKYGADVNASDRDGHTPLHLAAREGHLEIVEVLLKNGADVNAQDKFGKTAFDISIDNGNEDLAEILQKLGGGGSRSDLGKKLLEAARAGQDDEVRILMANGADVNAKDEYGLTPLYLATAHGHLEIVEVLLKNGADVNAVDAIGFTPLHLAAFIGHLEIAEVLLKHGADVNAQDKFGKTAFDISIGNGNEDLAEILQKLNGS
notes: also called C15-66FSY-C16; biparatopic DARPin
crosslinking [7]: 50%

B8: C36-FSY (bispecific antibody)
chain: QVQLQESGGGSVEAGGSLRLSCARSGWPYSTYSMNWFRQAPGKEREAVAGISSTMSGIIFAESKAGQFTISQDNAKNTVYLQMNNLKPEDTAIYYCAARRXFSLSSSSDDFDYWGQGTQVTVSSGGGGSGGGGSGGGGSQVQLQESGGGSVEAGGSLRLSCARSGWPYSTYSMNWFRQAPGKEREAVAGISSTMSGIIFAESKAGQFTISQDNAKNTVYLQMNNLKPEDTAIYYCAARRXFSLSSSSDDFDYWGQGTQVTVSSAAAYPYDVPDYGSLPETGGSPSTPPTPSPSTPP
modifications: FSY at both X of the entry (101 of each C24 part)
notes: Tandem of two copies of the same VHH
Crosslinked PSMA (Total PSMA %) (PSMA on LNCaP cells [8]): 23.7% | Crosslinked PSMA (Total PSMA %) (PSMA on LNCaP cells [9]): 3.8% | Crosslinked PSMA (Total PSMA %) (PSMA on LNCaP cells [10]): 82.7% | Crosslinked PSMA (Total PSMA %) (PSMA on LNCaP cells [11]): 58.7% | Crosslinked PSMA (Total PSMA %) (PSMA on LNCaP cells [12]): 92% | Crosslinked PSMA (Total PSMA %) (PSMA on LNCaP cells [13]): 87.9% | Crosslinked PSMA (Total PSMA %) (PSMA on LNCaP cells [14]): 90.3% | Crosslinked PSMA (Total PSMA %) (PSMA on LNCaP cells [15]): 13.8% | Crosslinked PSMA (Total PSMA %) (PSMA on LNCaP cells [16]): 74.2% | Crosslinked PSMA (Total PSMA %) (PSMA on LNCaP cells [17]): 2.8%

B9: C33-54TYR (VHH)
VHH: QVQLQESGGGSVQAGGSLKLTCAASGYIFNSCGMGWYRQSPGRERELVSRISGYGDTWHKESVKGRFTISQDNVKKTLYLQMNSLKPEDTAVYFCAVCYNLETYWGQGTQVTVSS
modifications: PEG8-vc-PABC-MMAE on the C-terminal GGG
EC50 (HER2 on BT-474 cells [18]): 2.5 nM | IC50 (nM) - 5 h, BT474 viability after 5 h washout (HER2 on BT-474 cells [19]): 21.6 nM | IC50 (nM) - 6 days, BT474 viability, continuous exposure (HER2 on BT-474 cells [19]): 0.328 nM

B10: C33-52TYR (VHH)
VHH: QVQLQESGGGSVQAGGSLKLTCAASGYIFNSCGMGWYRQSPGRERELVSRIYGDGDTWHKESVKGRFTISQDNVKKTLYLQMNSLKPEDTAVYFCAVCYNLETYWGQGTQVTVSS
modifications: PEG8-vc-PABC-MMAE on the C-terminal GGG, by sortase ligation
EC50 (HER2 on BT-474 cells [18]): 160 nM | IC50 (nM) - 5 h, BT474 viability after 5 h washout (HER2 on BT-474 cells [19]): > 100 nM | IC50 (nM) - 6 days, BT474 viability, continuous exposure (HER2 on BT-474 cells [19]): 8.42 nM
